Measured values reported in publication PMC2637931.

Experiments:
[1] = molecular target: soluble portion of the transferrin receptor expressed as a recombinant entity (UniProt P02786)
[2] = molecular target: sTFR with 5-hydroxytryptophan substituted for Trp (UniProt P02786)

soluble portion of the transferrin receptor expressed as a recombinant entity, sequence (P02786 122-760): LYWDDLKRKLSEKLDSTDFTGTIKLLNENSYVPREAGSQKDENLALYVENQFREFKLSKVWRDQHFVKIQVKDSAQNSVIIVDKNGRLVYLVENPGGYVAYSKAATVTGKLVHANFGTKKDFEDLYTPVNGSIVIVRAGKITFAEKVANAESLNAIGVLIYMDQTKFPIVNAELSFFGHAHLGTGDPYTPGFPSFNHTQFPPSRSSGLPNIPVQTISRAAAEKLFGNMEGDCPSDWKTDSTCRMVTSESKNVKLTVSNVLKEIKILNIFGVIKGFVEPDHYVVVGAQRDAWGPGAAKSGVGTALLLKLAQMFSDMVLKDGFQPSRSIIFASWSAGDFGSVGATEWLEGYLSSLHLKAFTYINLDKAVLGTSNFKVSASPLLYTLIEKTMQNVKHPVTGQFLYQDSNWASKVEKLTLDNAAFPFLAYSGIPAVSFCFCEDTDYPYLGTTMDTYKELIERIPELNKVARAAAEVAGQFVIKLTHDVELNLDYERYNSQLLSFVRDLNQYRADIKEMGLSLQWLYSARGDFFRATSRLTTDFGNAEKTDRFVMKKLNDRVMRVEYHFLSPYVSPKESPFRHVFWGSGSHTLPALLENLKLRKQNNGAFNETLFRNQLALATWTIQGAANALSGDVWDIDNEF

k (obsC1) of iron release from the complex at pH 5.6, excitation 280 nm [1]: 25.8 min^-1
k (obsC1) of iron release from the complex at pH 5.6, excitation 315 nm [1]: 14.1 min^-1
k (obsC2) of iron release from the complex at pH 5.6, excitation 280 nm [1]: 8.3 min^-1
k (obsC2) of iron release from the complex at pH 5.6, excitation 315 nm [1]: 2.8 min^-1
k (obsC1) of iron release from the complex at pH 5.6, excitation 280 nm [2]: 18.1 min^-1
k (obsC1) of iron release from the complex at pH 5.6, excitation 315 nm [2]: 22.4 min^-1
k (obsC2) of iron release from the complex at pH 5.6, excitation 280 nm [2]: 4 min^-1
k (obsC2) of iron release from the complex at pH 5.6, excitation 315 nm [2]: 3.4 min^-1
Substance: FeC hTF with 5-hydroxytryptophan substituted for Trp (from UniProt P02787 20-698) (ligand)
